{"source": "patent US20040019193A1", "about": "“Mob-5/hmob-5 as a cancer diagnostic marker” (priority 2002, published 2004)", "key": {"hMob-5": {"target": "T1, hMob-5 (Homo sapiens, UniProt Q13007)", "T1 sequence (Q13007 1-207 isoform Q13007-2)": "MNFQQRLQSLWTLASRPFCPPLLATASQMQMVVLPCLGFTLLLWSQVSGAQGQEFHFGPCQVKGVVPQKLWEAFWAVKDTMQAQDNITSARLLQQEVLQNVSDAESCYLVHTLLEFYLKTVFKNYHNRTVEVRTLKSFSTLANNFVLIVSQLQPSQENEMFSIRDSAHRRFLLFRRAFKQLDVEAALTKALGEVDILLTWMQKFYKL", "assay": "GBA bead capture ELISA for Mob-5, standard curve", "protocol": "This allows the use of GBA in a method for detecting Mob-5 in an ELISA. GBA is utilized to capture the antigen (i.e. Mob-5) and a biotinylated monoclonal antibody to Mob-5 is used to detect the antigen. The use of GBA allows for higher capacity and lower costs when compared to the traditional ELISA method. The method is performed by diluting a biotinylated Mab-hMob-5 (for example, the monoclonal antibody produced from hybridoma clone L-14) 1:500 in PBST (Phosphate Buffered Saline, Tween 0.05%); diluting Streptavidin-HRP (Sigma) 1:500 in PBST; mixing the diluted Mab-hMob-5 with the diluted Streptavidin-HRP in equal volume (for example, […]); letting the mixture sit for 5-10 minutes; washing the GBA beads with PBST twice; spinning and removing the upper liquid phase with an aspirator; resuspending the washed GBA beads in PBST as a 50% suspension; mixing […] of a sample with 100 ml of the diluted Mab-hMob-5 and Streptavidin-HRP mixture in a tube; adding […] of resuspended GBA beads to the tube; allowing the tube to rotate on a roller for 1-2 hours; spinning down the GBA beads for 2 minutes; aspirating the supernatant; washing the beads with 1 ml of PBST twice; washing the beads with dH20 twice; removing the supernatant; adding […] of horseradish peroxidase (HRP) substrate with H2O2 to resuspend the beads; allowing the color to develop in the dark for as long as needed (from hours, to days or weeks). A hMob-5-9×His medium can be utilized as a positive control. One skilled in the art would know that variations of this protocol are possible. For example, the GBA beads may be added to the sample prior to the addition of the biotinylated Mab/streptavidin-HRP mixture, alkaline phosphatase labeled streptavidin can be used, wash times may vary, spin times may vary and development times may vary. By utilizing this method, representative results for a standard curve were obtained."}, "Rat-1 cells": {"system": "Rat-1 cells", "assay": "Over expression of Mob-5 in Rat-1 cells, morphological transformation", "format": "cell-based", "settings": "retroviral over expression of Mob-5 alone in Rat-1 cells", "source_text": "Over expression of the full length mob-5 cDNA with retroviral vector in a variety of rodent fibroblasts including Rat-1 cells led to high level secretion of Mob-5 protein with a predicted MW of 23 KD into the culture media, which could be readily detected by western blot using polyclonal antibody directed against the recombinant Mob-5 (FIG. 4A).\nConstruction of mob-5 mammalian expression construct A 680-bp BspHI-Bgl II restriction fragment containing the entire coding region of mob-5 was generated by PCR using cloned mob-5 cDNA as a template. The targeting construct was subsequently inserted between the Nco I and Bam I sites of retroviral vector pMFG-S (Danos and Mulligan, 1988; Dranoff, G. et al. 1993) and sequenced to ensure the sequence accuracy.\nTransfection and Retroviral Infection Recombinant plasmids were transfected into target cells by the standard calcium phosphate precipitation method. For retroviral packaging, pMFG-S-Mob-5 was cotransfected with pCMV-Neo vector at a rate of 10:1 (10 μg of pCMV-S-rMob-5: 1 μg of pCMV-Neo) into the CRIP packaging cells to produce G418 (1 mg/ml) resistant stable cell lines. Retroviral infection was carried out essentially as described previously (Zhang et al., 1998). […]"}, "[1]": {"system": "putative Mob-5 receptor on the cell surface of h-ras transformed RIE cells", "assay": "AP fusion protein receptor binding assay on RIE cells before and after h-ras transformation", "parameters": "species or system rat", "settings": "normal versus h-ras transformed RIE cells, media at 0.7 unit/ml", "protocol": "(E) Mob-5-AP, but not hMob-5-AP, binds specifically to the cell surface of oncogenic h-ras transformed RIE cells. Both the normal and oncogenic h-ras transformed RIE cells were analyzed for the ability to bind Mob-5-AP versus AP alone. The same experiment was carried out with hMob-5-AP and AP alone. The cell surface bound AP activity was measured to reveal a species specific Mob-5 binding activity present only on the cell surface of the h-ras transformed RIE cells. The result is representative of at least 3 independent experiments.\nAs in Rat-1 cells, the putative Mob-5 receptor was also found to be differentially expressed between the normal and h-ras transformed RIE cells using Mob-5-AP fusion protein as a ligand (FIG. 4E, left panel). To determine whether hMob-5-AP could also differentially bind to the cell surface of h-ras transformed RIE cells, the receptor binding assay was conducted using hMob-5-AP in place of Mob-5-AP.\nmob-5 expression is activated by both oncogenic h-ras and k-ras in intestinal epithelial cells Cancer arises from the epithelial cells rather than fibroblasts and K-ras mutations have been tightly linked with cancers of gastric intestinal origins (Kiaris and Spandidos, 1995). […] After the final 5 min extension at 72 ° C., the RT-PCR products were analyzed on a 1.5 % agarose gel. […]"}}, "data": [{"molecule": "hMob-5: human homolog of Mob-5, secreted protein over expressed in colon cancer (protein) MNFQQRLQSLWTLASRPFCPPLLATASQMQMVVLPCLGFTLLLWSQVSGAQGQEFHFGPCQVKGVVPQKLWEAFWAVKDTMQAQDNITSARLLQQEVLQNVSDAESCYLVHTLLEFYLKTVFKNYHNRTVEVRTLKSFSTLANNFVLIVSQLQPSQENEMFSIRDSAHRRFLLFRRAFKQLDVEAALTKALGEVDILLTWMQKFYKL", "values": [{"measurement": "OD405", "setting": "hMob-5; hMob-5 2 ng/ml", "result": 0.216}, {"measurement": "OD405", "setting": "hMob-5; hMob-5 10 ng/ml", "result": 0.941}, {"measurement": "OD405", "setting": "hMob-5; hMob-5 20 ng/ml", "result": 1.881}]}, {"molecule": "Mob-5: rat secreted protein of 183 amino acids, 23 KD, encoded by oncogenic ras target gene mob-5 (protein) PELQGQEFRFGPCQVTGVVLPELWEAFWTVKNTVKTQDELTSVRLLKPQVLQNVSDAESCYLAHSLLKFYLNTVFKNYHSKIVKFKVLKSFSTLANNFLVIMSKLQPSKDNAMLPISDSARRRFLLYHRTFKQLDIEVALAKAFGEVDILLAWMQNFYQL", "values": [{"measurement": "morphological transformation on over expression", "setting": "Rat-1 cells", "result": "did not lead to any obvious morphological transformation"}]}, {"molecule": "hMob-5-AP: human Mob-5 fused at the C-terminus with alkaline phosphatase, 90 KD (SEQ ID NO: 10) (protein) MNFQQRLQSLWTLASRPFCPPLLATASQMQMVVLPCLGFTLLLWSQVSGAQGQEFHFGPCQVKGVVPQKLWEAFWAVKDTMQAQDNITSARLLQQEVLQNVSDAESCYLVHTLLEFYLKTVFKNYHNRTVEVRTLKSFSTLANNFVLIVSQLQPSQENEMFSIRDSAHRRFLLFRRAFKQLDVEAALTKALGEVDILLTWMQKFYKLGSSGIIPVEEENPDFWNREAAEALGAAKKLQPAQTAAKNLIIFLGDGMGVSTVTAARILKGQKKDKLGPEIPLAMDRFPYVALSKTYNVDKHVPDSGATATAYLCGVKGNFQTIGLSAAARFNQCNTTRGNEVISVMNRAKKAGKSVGVVTTTRVQHASPAGTYAHTVNRNWYSDADVPASARQEGCQDIATQLISNMDIDVILGGGRKYMFPMGTPDPEYPDDYSQGGTRLDGKNLVQEWLAKRQGARYVWNRTELMQASLDPSVTHLMGLFEPGDMKYEIHRDSTLDPSLMEMTEAALRLLSRNPRGFFLFVEGGRIDHGHHESRAYRALTETIMFDDAIERAGQLTSEEDTLSLVTADHSHVFSFGGYPLRGSSIFGLAPGKARDRKAYTVLLYGNGPGYVLKDGARPDVTESESGSPEYRQQSAVPLDEETHAGEDVAVFARGPQAHLVHGVQEQTFIAHVMAFAACLEPYTACDLAPPAGTTDAAHPG", "values": [{"measurement": "cell surface binding (bound AP activity) versus AP alone", "setting": "[1]", "result": "did not exhibit any preferential cell surface binding"}]}]}
